In patent US20140227188:

Test system: T1, Cathepsin E-activatable 5-ALA prodrug, H-Arg-Gln-Ala-Gly-Phe-Ser-Leu-5-ALA-OH
T1 sequence: RQAGFSL

Substance	proteolytic cleavage of the prodrug, LC-MS (50 pmol and 100 pmol enzyme)	proteolytic cleavage of the prodrug, fragments identified by LC-MS (50 pmol enzyme)
Cathepsin B (purified proteolytic enzyme)	A higher concentration of Cath B and D (100 pmol) showed no sign of cleavage of the 5-ALA prodrug at the link between 5-ALA and the rest of the peptide substrate	
Cathepsin D (purified proteolytic enzyme)	A higher concentration of Cath B and D (100 pmol) showed no sign of cleavage of the 5-ALA prodrug at the link between 5-ALA and the rest of the peptide substrate	
Cathepsin E (purified proteolytic enzyme)		Cath E was the only tested protease capable of cleaving the 5-ALA prodrug to two major metabolic fragments
